Measurements taken from a protein production outcome set (Wang et al. 2014).

Test: label from the status in PepcDB records

MRLTSKGRYAVTAMLDVALNSEAGPVPLADISERQGISLSYLEQLFSRLRKNGLVSSVRGPGGGYLLGKDASSIAVGEVISAVDESVDATRCQGKGGCQGGDKCLTHALWRDLSDRLTGFLNNITLGELVNNQEVLDVSGRQHTLEHHHHHH
protein production: not failed

MKMLNRLDLGVPCLRAGFAGEQAFFLAMDGRLHVQQGDQRRVVALHDGDVLSACAAPGQADAAAWLLSAGEDGRVMRAGAGEPDCVASVPNKWVTALAVAADGALAYASGRTVWLAGGGGEAAALPQERPVQALRFSHGGRWLAVAGYDGLALYDRQAGGEPQRLDWKGMPTRVAFSPDDRFVLVATRDAVLHGWRLDTLRHFRMVGYPRAVGSWSWLAGGQWLATDGSAGAVLWPFEGEEGPIGSTPLALGERPDGEVSAVACHPARPWVAVGYADGLMVLESTDGALRRILGQAGRDRVACLAWDRAGARLAYGTPSGACGVIQADTGEEGLEHHHHHH
protein production: failed

MSATAAARKRGKPASGAGAGAGAGKRRRKADSAGDRGKSKGGGKMNEEISSDSESESLAPRKPEEEEEEELEETAQEKKLRLAKLYLEQLRQQEEEKAEARAFEEDQVAGRLKEDVLEQRGRLQKLVAKEIQAPASADIRVLRGHQLSITCLVVTPDDSAIFSAAKDCSIIKWSVESGRKLHVIPRAKKGAEGKPPGHSSHVLCMAISSDGKYLASGDRSKLILIWEAQSCQHLYTFTGHRDAVSGLAFRRGTHQLYSTSHDRSVKVWNVAENSYVETLFGHQDAVAALDALSRECCVTAGGRDGTVRVWKIPEESQLVFYGHQGSIDCIHLINEEHMVSGADDGSVALWGLSKKRPLALQREAHGLRGEPGLEQPFWISSVAALLNTDLVATGSHSSCVRLWQCGEGFRQLDLLCDIPLVGFINSLKFSSSGDFLVAGVGQEHRLGRWWRIKEARNSVCIIPLRRVPVPPAAGS
protein production: failed

MFQTGGLIVFYGLLAQTMAQFGGLPVPLDQTLPLNVNPALPLSPTGLAGSLTNALSNGLLSGGLLGILENLPLLDILKPGGGTSGGLLGGLLGKVTSVIPGLNNIIDIKVTDPQLLELGLVQSPDGHRLYVTIPLGIKLQVNTPLVGASLLRLAVKLDITAEILAVRDKQERIHLVLGDCTHSPGSLQISLLDGLGPLPIQGLLDSLTGILNKVLPELVQGNVCPLVNEVLRGLDITLVHDIVNMLIHGLQFVIKV
protein production: failed

MKSWIVKEIKINGLSYFGPLIFTVLPIAERIYKISLNSYIMINYLILVIFLSFICTYLVLSNLFNGIMYTLTYTVGISPKEIILTRLFLFSTIPVLPIAMALWMTSSLTTLAKFIIQIYILVLMSTIIGIIFKNDIIALIMDFIISALGLSVKINFLFPFLSGQLNPLSGIIVVLLLALTIYLLSNVELQKVERV
protein production: failed

MSVDPKLIRQKIQRLDAGARPRVLDLFSGCGGISLGFQSAGFEIVAAVENDPDAARSHGLNFHHGEDRHSIPRNITVTSPAALATALGLGAAASAFDVIVGGPPCQAFARVGRSKLREIAEHPEAFRHDSRARLYIEYLAYVEACAPLAVVIENVPDMLNHGGHNLAAEIGEILASKDYVVRYTLLNAAFYGVPQMRERMILIAIRKELADDVEFPAPTHWIDLPSGYQGSRAVALKLATGRDLLTEATGGSAYKAAPEAVETLAPAVSTQQAIGDLPEIMARELLAEGALRRGTRRLDAMLPYGGHNQQNDYVKEMRTWPGFEGSSHVRDHVIRYLPRDYRIFAGLKPGDQYPEAHRYALSLFEAELERLHAQGKRPEDGSSEWDALKAAFVPPYDAGKFPNKWRKMEATTPARTLLAHLGKDGYSHIHYDSRQARPISVREAARLQSFPDGFRFAGTMNPAFRQIGNAVPPLLARAIAQTLRSQLVRGVATEDLPRVAGAGR
protein production: failed

MRLFAINAGNFKLDGGAMFGVVPKSIWNKLNPADSNNLCTWATRCLLIENGKQLVLIDTGLGDKQDESFFRHYYRDTPQTWDTLLKPYGFHSSDITDVVLTHLHFDHVGGALEKKGDKIVPTFSNARYWSNTRHWDWAVEPNPREKASFLKDNLFPLQESGQLYFVDTQNLPFEWMDFIFVDGHTEQQMLPLITTPAEKKILYAADLLPSAGHIPMPYIMSYDVRPLVSMQEKERVFNQVLAEDWTVFLEHDLSNACISLQQTEKGIRLNNVFQISDFNLEHHHHHH
protein production: failed

MRRLKRDPLERAFLRGYQNGITGKSRDLCPFTHPTTRQSWLNGWREGRGDNWDGLTGTAGLQRLNQLQHVLEHHHHHH
protein production: failed

MPEGHRATAIYFRHLLLIRVEIENIVNTLAICRHTFYISSLSLPCNLNKLIIMENLQSNLFYSLAGVAAVASLASCTNKQKTTEQKPLNIVYIMTDDHTAQMMSCYDTRYMETPNLDRIAADGVRFTQSFVANSLSGPSRACMITGKHSCANKFYDNTTCVFDSSQQTFPKLLQKVGYQTALVGKWHLESLPSGFNYWQIVPGQGDYYNPAFITQDNDTIQKHGYITNLITDDAIDWMENKRDPEKPFCLLIHHKAIHRNWMADTCNLALYEDKTFPLPDNFFDDYEGRPAAAAQEMSIVKDMDMIYDLKMLRPNEKSRLRSLYERFLGRMDEGQRAAWDKFYAPIIDDFYKQNLTGKELANWKFQRYMRDYMKTVKSLDDNVGRVLDYLKEKGLLDNTLVVYTSDQGFYMGEHGWFDKRFMYEESMRTPLIMRLPKGFDRRGDITEMVQNIDYAPTFLELAGAEIPADIHGVSLLPLLKGEHPKDWRKSLYYHFYEYPAEHMVKRHYGVRTERYKLIHFYNDINWWELYDMQADPSEMHNLYGEAEYEPVVKELKDELLKLQEQYNDPVRFSPERDKE
protein production: failed

MPNMGIEKLYVSQQLTDSAAGMTFTKPQYYKYVQELSLKPKVNSASAYAENRKVDQDTQFDSCDVSINLFQMTSSQRAFMLGQSLAGGGGAIGALNDKAPWITLLYKAPIKVDDTIYYRYGVIYKTQFQPPDDDYKTTEGKPDFSQVPKISGSAQPTEWSFKDGKLEKHPWEWHVDTCDPNCPENIDDTWFNSVSIPSLVTYGSLSLSASSPKDGATGISLDTKPSLTFNNPIMNATSILLYNVSDGATVNTTTSSDSSGKIITITPSTNLVANKNYVLVVQDVTDLYGQTLDTQLIRFTTATAASLEHHHHHH
protein production: not failed

MQSSAVFPLSPLIPLLQQRRLSLRHHPITAASSSDLNMSPNKPTPYVLSAIVPIVGGVALASISEVSFNWAGFSSAMASNLTNQSPNNYIFEF
protein production: failed

MSLAMQDFRPGVYRHYKGDHYLALGLARADETDEVVVVYTRLYARAGLPMSTRLLRIWNETVDTGAGPQPRFAYVGHVTPEQGEGHHHHHH
protein production: not failed

MPEVVFYPQNKSINVEEGTTILQAARSAGVIIESPCNGTGTCGKCKVRLDEKSLPNVLAKSRHYLSKEEEEQGYVLACETQITGDIKVELGENKQNGTLKILSRGHSFNIDLKPFIRKEYFVHEDVTKVFAGKEQLGIEAGDTTKENYGAVVDIGTTTLVASIVNLNNGDEIGTSSALNPQAVHAQDVLSRIKFSSDADGLKVMHSELTDKINSMIGKIALRAGISKEHIYEIVFSGNTCMLHLASNTCPESLGKYPYTPKISGAAYLDAAKYNIDISPFGIIYLPPIISAYVGADIVSGILASQLHEKDGVILFVDIGTNGEMVLASCGNLSATSTAAGPAFEGMNITCGMRAGEAAIEFFEIEEQGSINIKVIGETEAAGICGSGLLDMVGEFAAHGVIKKNGQFIDPESENVLHPKLAERLVRQDGKWIFKVTDKVFLSQKDIRQVQLAKGAVRAGIEFLLENKGVRASDVDKVLIAGSFGYHLREKSLINIGLLPKEFEGKVEFVGNTSLSGAKAFLLNQTYREKMKETVKSVEVLELANYKDFDRVFVRCLSFLEHHHHHH
protein production: failed

MGHHHHHHSHMASLTVKAYLLGKEDAAREIRRFSFCCSPEPEAEAEAAAGPGPCERLLSRVAALFPALRPGGFQAHYRDEDGDLVAFSSDEELTMAMSYVKDDIFRIYIKEKKECRRDHRPPCAQEAPRNMVHP
protein production: failed

MVVKMIEKYVEFIGEHELDAIFKIAEKIKDLSILHVNSTKAGGGVAEILNRMLPLMKELGLNVDWKVIKGDNEFFNVTKSFHNSLQNGTGNIPDEYFKIYDKWQEINLSEIPLDYDIMFIHDPQPAGLIKFKKGNSNKWIWRCHIDISNPYPPVWNFLRKYISKYDSMIISVPSFGRDDIEIPQFVIPPSIDPLSIKNRDMSETTILRILYKFGINLEKPLITQVSRFDYAKDPLGVIQAYKLAKRHVDIQLLYVGSPATDDPEGEKVYSEVVKASEGDKDIHLLMLPPYSDLEINVFQTASTVVMQKSIKEGFGLTVSEAMWKRKPVIGGNTGGIPLQVINGITGFLVNSPQGASHYIIYLIRNEEIRRRLGTNAREHIRRNFLITRELRDYLMTIVYVANRGLASLNSHESISNHLEHHHHHH
protein production: failed
